Data reported in the supplement of paper PMC11246515.
± gives the standard deviation of the averaged measurements.

Assay: total protein half-life in vivo (active degradation + dilution); higher = more stable protein
[1] = E. coli NCM3722 delta-clpP delta-lon delta-hslV, growth: N-lim chemostat, doubling time 6 h
[2] = E. coli NCM3722 delta-clpP, growth: N-lim chemostat, doubling time 6 h
[3] = E. coli NCM3722 delta-smpB, growth: N-lim chemostat, doubling time 6 h
[4] = wild type E. coli NCM3722, growth: C-lim chemostat, doubling time 3 h
[5] = wild type E. coli NCM3722, growth: C-lim chemostat, doubling time 6 h
[6] = wild type E. coli NCM3722, growth: C-lim chemostat, doubling time 12 h
[7] = wild type E. coli NCM3722, growth: N-lim chemostat, doubling time 6 h
[8] = wild type E. coli NCM3722, growth: N-lim chemostat, doubling time 12 h
[9] = wild type E. coli NCM3722, growth: P-lim chemostat, doubling time 6 h
[10] = wild type E. coli NCM3722, growth: P-lim chemostat, doubling time 12 h
[11] = E. coli NCM3722 delta-hslV, growth: N-lim chemostat, doubling time 6 h
[12] = E. coli NCM3722 delta-lon, growth: N-lim chemostat, doubling time 6 h

| Sequence | total protein half-life in vivo [1] [h] | total protein half-life in vivo [2] [h] | total protein half-life in vivo [3] [h] | total protein half-life in vivo [4] [h] | total protein half-life in vivo [5] [h] | total protein half-life in vivo [6] [h] | total protein half-life in vivo [7] [h] | total protein half-life in vivo [8] [h] | total protein half-life in vivo [9] [h] | total protein half-life in vivo [10] [h] | total protein half-life in vivo [11] [h] | total protein half-life in vivo [12] [h] |
| --- | --- | --- | --- | --- | --- | --- | --- | --- | --- | --- | --- | --- |
| MGKLTGKTALITGALQGIGEGIARTFARHGANLILLDISPEIEKLADELCGRGHRCTAVVADVRDPASVAAAIKRAKEKEGRIDILVNNAGVCRLGSFLDMSDDDRDFHIDINIKGVWNVTKAVLPEMIARKDGRIVMMSSVTGDMVADPGETAYALTKAAIVGLTKSLAVEYAQSGIRVNAICPGYVRTPMAESIARQSNPEDPESVLTEMAKAIPMRRLADPLEVGELAAFLASDESSYLTGTQNVIDGGSTLPETVSVGI | 5.394 ± 0.017 | 4.09 ± 0.14 | 4.12 ± 0.29 | 2.91 ± 0.32 | 6.12 ± 0.41 | 10.2 ± 1.1 | 5.35 | 6.28 | 6.25 ± 0.41 | 14.8 ± 0.61 |  |  |
| MGKTISIKVLFGIYLLLMAGKVFAFSCNVDGGSSIGAGTTSVYVNLDPVIQPGQNLVVDLSQHISCWNDYGGWYDTDHINLVQGSAFAGSLQSYKGSLYWNNVTYPFPLTTNTNVLDIGDKTPMPLPLKLYITPVGAAGGVVIKAGEVIARIHMYKIATLGSGNPRNFTWNIISNNNVVMPTGGCTVDSRNVTVDLPDFPGSAEIPLGVYCSSEQKLSFYLSGATTDSSRQVFANTAPDATKASGVGVTLMRNGKILATGENVSLGTVNKSKVPLGLSATYGQTGNKVSAGTVQSVIGVTFIYE |  | 5.18 ± 0.35 | 5.306 ± 0.0055 | 2.85 ± 0.12 | 3.09 | 8.385 ± 0.065 | 6.56 | 12.7 ± 0.21 |  |  |  |  |
| MGKTNDWLDFDQLAEEKVRDALKPPSMYKVILVNDDYTPMEFVIDVLQKFFSYDVERATQLMLAVHYQGKAICGVFTAEVAETKVAMVNKYARENEHPLLCTLEKA [P0A8Q6] | 5.9 ± 0.35 |  |  | 0.522 | 0.628 | 0.456 |  |  |  | 0.869 | 0.855 ± 0.013 | 1.05 |
| MGMLEARELLCERDERTLFSGLSFTLNAGEWVQITGSNGAGKTTLLRLLTGLSRPDAGEVLWQGQPLHQVRDSYHQNLLWIGHQPGIKTRLTALENLHFYHRDGDTAQCLEALAQAGLAGFEDIPVNQLSAGQQRRVALARLWLTRATLWILDEPFTAIDVNGVDRLTQRMAQHTEQGGIVILTTHQPLNVAESKIRRISLTQTRAA | 6.22 |  | 5.33 |  |  |  | 5.94 ± 0.86 |  |  |  |  |  |
| MGNNLLSAKATLPVYDLNNLAPRIVHLGFGAFHRAHQGVYADILATEHFSDWGYYEVNLIGGEQQIADLQQQDNLYTVAEMSADVWTARVVGVVKKALHVQIDGLETVLAAMCEPQIAIVSLTITEKGYFHSPATGQLMLDHPMVAADVQNPHQPKTATGVIVEALARRKAAGLPAFTVMSCDNMPENGHVMRDVVTSYAQAVDVKLAQWIEDNVTFPSTMVDRIVPAVTEDTLAKIEQLTGVRDPAGVACEPFRQWVIEDNFVAGRPEWEKAGAELVSDVLPYEEMKLRMLNGSHSFLAYLGYLAGYQHINDCMEDEHYRYAAYGLMLQEQAPTLKVQGVDLQDYANRLIARYSNPALRHRTWQIAMDGSQKLPQRMLDSVRWHLAHDSKFDLLALGVAGWMRYVGGVDEQGNPIEISDPLLPVIQKAVQSSAEGKARVQSLLAIKAIFGDDLPDNSLFTARVTETYLSLLAHGAKATVAKYSVK | 5.14 ± 0.34 | 3.3 ± 0.17 | 2.77 ± 0.18 | 1.95 ± 0.0085 | 4.22 | 6.21 ± 3.1 | 3.63 ± 0.19 | 5.47 ± 0.58 | 3.61 ± 0.7 | 7.36 ± 0.28 | 3.4445 ± 0.0012 |  |
| MGNNLMQTDLSVWGMYQHADIVVKCVMIGLILASVVTWAIFFSKSVEFFNQKRRLKREQQLLAEARSLNQANDIAADFGSKSLSLHLLNEAQNELELSEGSDDNEGIKERTSFRLERRVAAVGRQMGRGNGYLATIGAISPFVGLFGTVWGIMNSFIGIAQTQTTNLAVVAPGIAEALLATAIGLVAAIPAVVIYNVFARQIGGFKAMLGDVAAQVLLLQSRDLDLEASAAAHPVRVAQKLRAG [P0ABU7] | 6.15 ± 0.21 | 6.38 ± 2.2 | 1.58 ± 1 | 1.68 ± 0.17 | 1.99 | 3.22 |  |  | 1.38 | 3.56 |  |  |
| MGQQKQRNRRWVLASRPHGAPVPENFRLEEDDVATPGEGQVLLRTVYLSLDPYMRGRMSDEPSYSPPVDIGGVMVGGTVSRVVESNHPDYQSGDWVLGYSGWQDYDISSGDDLVKLGDHPQNPSWSLGVLGMPGFTAYMGLLDIGQPKEGETLVVAAATGPVGATVGQIGKLKGCRVVGVAGGAEKCRHATEVLGFDVCLDHHADDFAEQLAKACPKGIDIYYENVGGKVFDAVLPLLNTSARIPVCGLVSSYNATELPPGPDRLPLLMATVLKKRIRLQGFIIAQDYGHRIHEFQREMGQWVKEDKIHYREEITDGLENAPQTFIGLLKGKNFGKVVIRVAGDD | 4.9643 ± 0.002 | 5.13 ± 1.2 | 4.16 ± 0.6 | 3.3 ± 0.29 | 5.53 ± 0.19 | 10.3 ± 1 | 4.48 ± 0.35 | 7.42 ± 0.32 | 5.59 ± 0.22 | 10.9 ± 0.62 | 5.03 ± 0.36 | 4.74 ± 0.34 |
| MGQSKKLNKQPSSLSPLVQLAGIRKCFDGKEVIPQLDLTINNGEFLTLLGPSGCGKTTVLRLIAGLETVDSGRIMLDNEDITHVPAENRYVNTVFQSYALFPHMTVFENVAFGLRMQKTPAAEITPRVMEALRMVQLETFAQRKPHQLSGGQQQRVAIARAVVNKPRLLLLDESLSALDYKLRKQMQNELKALQRKLGITFVFVTHDQEEALTMSDRIVVMRDGRIEQDGTPREIYEEPKNLFVAGFIGEINMFNATVIERLDEQRVRANVEGRECNIYVNFAVEPGQKLHVLLRPEDLRVEEINDDNHAEGLIGYVRERNYKGMTLESVVELENGKMVMVSEFFNEDDPDFDHSLDQKMAINWVESWEVVLADEEHK | 7.21 ± 0.97 |  | 5.77 ± 0.36 | 3.46 ± 0.65 | 6.55 ± 0.38 | 11.9 ± 0.32 |  | 12.2 ± 0.83 | 6.41 ± 0.34 | 13.4 ± 0.35 | 5.83 ± 0.062 | 5.7 ± 0.78 |
